According to paper PMC4787834:
Where a chain is given by its changes, count along the chain named.

Legend:
MsmUdgX F4 = target: T1, MsmUdgX F4 (Mycobacterium smegmatis mc2 155, UniProt A0QP43 1-209, Q53A); assay: 8 M urea-PAGE complex shift
T1 sequence: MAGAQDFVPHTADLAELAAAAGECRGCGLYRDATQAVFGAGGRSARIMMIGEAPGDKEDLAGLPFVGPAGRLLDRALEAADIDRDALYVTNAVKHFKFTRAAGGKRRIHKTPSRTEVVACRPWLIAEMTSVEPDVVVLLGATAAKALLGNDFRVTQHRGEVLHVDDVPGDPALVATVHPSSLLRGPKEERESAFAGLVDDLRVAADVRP

MsmUdgX [1] = target: T2, MsmUdgX (Mycobacterium smegmatis mc2 155, UniProt A0QP43 1-209); assay: 8 M urea-PAGE complex shift
T2 sequence: T1 sequence with A53Q

MsmUdgX [2] = target: T2, MsmUdgX; assay: SDS-PAGE complex shift

## CTCAAGTGUAGGCATGCAAGAGCT (ssDNA, deoxyuridine at position 9) [SSU9]
MsmUdgX F4
  binding result: binds
MsmUdgX [1]
  binding result: binds

## TUTT (ssDNA, deoxyuridine at position 2; 5' phosphate) [pTUTT]
MsmUdgX [2]
  binding result: binds

B1: SSU9:G (dsDNA)
DNA 1: CTCAAGTGUAGGCATGCAAGAGCT
DNA 2: CTTGCATGCCTGCACTTGAGTGCA
modifications: deoxyuridine at position 9 opposite G
MsmUdgX [1]
  binding result: binds
